One data set has as its target 38 kD esterase (Aspergillus awamori, UniProt Q9P979). Nature of the data set: API-20 enzyme test strip, substrate specificity for 38 kD esterase (Table 2). The class given is biochemical, Aspergillus niger. Conditions: API-20 strip. How it is done: Purified 38 kD esterase was analyzed for a variety of biochemical activities with an API-20 enzyme test strip (BioMerieux Vitek) according to the manufacturers instructions. […] “+++” indicates very strong response, “++” indicates strong response and “+” indicates activity shown towards substrate. “−” means no activity detected.

The conditions of data set [1]: from A. niger CBS120.49 grown on oat spelt xylan; cited from earlier work.
For data set [2] the following is noted: from A. niger CBS120.49; cited from earlier work.
A short description of data set [3]: Activity of purified 38 kD esterase toward natural and synthetic substrates (in words). It is filed as biochemical. Conditions: purified enzyme. As for the experimental part: (§1) The 38 kD esterase isolated according to Example 1 was analyzed for biochemical properties. […] When the 38 kD esterase was incubated in buffer for 30 minutes without substrate at pH 5.1, the temperature optima was 55° C.

Data set [4] in a line: Isoelectric point by isoelectric focusing (IEF) gel. The class given is physicochemical. As for the experimental part: Upon native PAGE of a desalted active fraction from HPSEC a single protein band was observed, The isolelectric point of the FAE was determined using Phast gel Dry IEF equilibrated with a solution ampholyte, (20% final concentration, containing a mix of pI 2-4, 80%, pI 3-10 20%) Glycerol (10%) for 1 hour. Separation was performed as per manufacturers recommendation (Pharmacia Biotechnology, Dry IEF instruction bulletin) and stained with coomassie R-250. The sample migrated as a single protein band with an isolelectric point of about 2.8.

Data set [5] can be described thus: pH and temperature optimum of 38 kD esterase activity on methyl ferulate. The class given is biochemical. Conditions: for maximal activity: methyl ferulate. How it is done: The enzyme sample was chromatographed by hydrophobic interaction chromatography (Poros® HPEM phenyl ether, Perseptive BioSystems, perfusion chromatography, […]). The column was connected to a BioCad® Perfusion Chromatography Workstation (Perseptive BioSystems) and equilibrated with 5 column volumes Tris-HCl (50 mM, pH 7.4) plus 1.2 M ammonium sulfate. The sample (205 ml) was applied to the column and separated at a flow rate of 30 ml/min with a linear gradient from 1.2 M to 200 mM ammonium sulfate over 20 column volumes. […] Four fractions eluting at 750 mM ammonium sulfate contained 83% of the starting FAE activity. Active fractions were pooled (60 ml), dialysed by ultrafiltration into start buffer for next chromatographic step (10 kDa membrane, 20L of 25 mM sodium acetate buffer pH 5.0). The sample was concentrated to 10 ml in preparation for ion exchange chromatography.
as §1

Substrate in data set [6]: COC(=O)/C=C/c1ccc(O)c(OC)c1
Description: purified protein, by the assay type. Conditions: other: substrate of purified 38 kD esterase.

Substrate in data set [7]: COc1cc(/C=C/C(=O)OC[C@@H]2O[C@@H](O[C@H]3[C@H](O)COC(O)[C@@H]3O)[C@H](O)[C@H]2O)ccc1O
Nature of the data set: purified protein, by the assay type. The conditions noted are these: other: substrate of purified 38 kD esterase.

Substrate in data set [8]: COc1cc(/C=C/C(=O)OC[C@@H]2O[C@@H](O[C@@H]3[C@@H](O)[C@H](O[C@@H]4COC(O)[C@H](O)[C@H]4O)OC[C@H]3O)[C@H](O)[C@H]2O)ccc1O
Nature of the data set: purified protein, by the assay type. The conditions noted are these: other: substrate of purified 38 kD esterase.

Substrate in data set [9]: COc1cc(/C=C/C(=O)OC[C@@H]2O[C@@H](O[C@@H]3[C@@H](O)[C@H](O[C@@H]4COC(O)[C@H](O)[C@H]4O)OC[C@H]3O[C@@H]3OC[C@@H](O)[C@H](O)[C@H]3O)[C@H](O)[C@H]2O)ccc1O
Nature of the data set: purified protein, by the assay type. The conditions noted are these: other: substrate of purified 38 kD esterase.

Where two headings read alike, the source gives them in different places.

As usually defined, the Km is the substrate concentration at which the rate is half of its maximum. What is called Vmax is the rate approached at saturating substrate.

Consider `CCCCCCCCCCCCCC(=O)Oc1ccc2ccccc2c1` [2-naphthyl myristate], for which the Activity entry at 38 kD esterase (pH 7.5) was “(+)”.
Consider `CCCCCCCC(=O)Oc1ccc2ccccc2c1` [2-naphthyl caprylate], for which, on 38 kD esterase (pH 7.5), the Activity result is given as “(++)”.
Consider `OC[C@H]1O[C@H](Oc2ccc3cc(Br)ccc3c2)[C@H](O)[C@@H](O)[C@H]1O` [6-Br-2-naphthyl-αD-galactopyranoside], for which, on 38 kD esterase (pH 5.4), the Activity result is recorded as “(+++)”.
For `O=P(O)(O)Oc1ccc2ccccc2c1` [2-naphthyl phosphate], the Activity result on 38 kD esterase (pH 5.4) is “(+)”.
The same measure, in the same setting: the result for `OC[C@H]1O[C@H](Oc2ccc3ccccc3c2)[C@H](O)[C@@H](O)[C@@H]1O` [2-naphthyl-αD-glucopyranoside] reads “(+)”.
For the molecule `COc1ccccc1NC(=O)c1cc2cc(Br)ccc2cc1OP(=O)(O)O` [Naphthol-AS-BI-phosphate], the Activity result at 38 kD esterase (pH 5.4) is reported as “(++)”.
The same measure, in the same setting: the result for `OC[C@H]1O[C@@H](Oc2ccc3cc(Br)ccc3c2)[C@H](O)[C@@H](O)[C@@H]1O` [6-Br-2-naphthyl-βD-glucopyranoside] reads “(+++)”; that for `OC[C@H]1O[C@@H](Oc2ccc3ccccc3c2)[C@H](O)[C@@H](O)[C@H]1O` [2-naphthyl-βD-galactopyranoside], “(++)”.
For `CCCC(=O)Oc1ccc2ccccc2c1` [2-naphthyl butyrate], at 38 kD esterase (pH 6.5), the Activity result is on record as “(+++)”.

B1: FAE-III: ferulic acid esterase isolated from Aspergillus niger CBS 120.49 (Faulds et al.) (protein, UniProt O42807 22-281, looked up)
Feruloyl esterase A: ASTQGISEDLYNRLVEMATISQAAYADLCNIPSTIIKGEKIYNAQTDINGWILRDDTSKEIITVFRGTGSDTNLQLDTNYTLTPFDTLPQCNDCEVHGGYYIGWISVQDQVESLVKQQASQYPDYALTVTGHSLGASMAALTAAQLSATYDNVRLYTFGEPRSGNQAFASYMNDAFQVSSPETTQYFRVTHSNDGIPNLPPADEGYAHGGVEYWSVDPYSAQNTFVCTGDEVQCCEAQGGQGVNDAHTTYFGMTSGACTW
Consider B1, for which, in [1], the pI is reported as 3.3. For the same molecule, in [2], the pH optimum is given as 5 and the temperature optimum is 55-60 °C.

B2: 38 kD esterase: esterase derived from Aspergillus niger, about 38 kD on SDS-PAGE, amino acid sequence SEQ. ID NO:28 (protein)
chain: MKQFSAKHVLAVVVTAGHALAASTQGISEDLYSRLVEMATISQAAYADLCNIPSTIIKGEKIYNSQTDINGWILRDDSSKEIITVFRGTGSDTNLQLDTNYTLTPFDTLPQCNGCEVHGGYYIGWVSVQDQVESLVKQQVSQYPDYALTVTGHSLGASLAALTAAQLSATYDNIRLYTFGEPRSGNQAFASYMNDAFQASSPDTTQYFRVTHANDGIPNLPPVEQGYAHGGVEYWSVDPYSAQNTFVCTGDEVQCCEAQGGQGVNNAHTTYFGMTSGACTW
Take B2: the “activity toward natural feruloyl and p-coumaroyl esters, cell walls of wheat bran and sugar beet pulp, wheat flour, pentosan fraction, ethyl and methyl esters of ferulic and p-coumaric acid” value in [3] is reported as “active”. In data set [4], the “pI (isoelectric point)” value is “about 2.8”. Moreover, the temperature optimum in data set [5] (250 μM methyl ferulate present) was 65 °C. The maximal activity in data set [5] (pH 3) worked out at 83%; in data set [5] (pH 8), 25%.

B3: 38 kD esterase (Aspergillus awamori) (protein)
chain: ASTQGISEDLYSRLVEMATISQAAYADLCNIPSTIIKGEKIYNSQTDINGWILRDDSSKEIITVFRGTGSDTNLQLDTNYTLTPFDTLPQCNGCEVHGGYYIGWVSVQDQVESLVKQQVSQYPDYALTVTGHSLGASLAALTAAQLSATYDNIRLYTFGEPRSGNQAFASYMNDAFQASSPDTTQYFRVTHANDGIPNLPPVEQGYAHGGVEYWSVDPYSAQNTFVCTGDEVQCCEAQGGQGVNNAHTTYFGMTSGACTW
Turning to B3, the Km came out at 2080 µM in data set [6], 78 µM in [7], 19 µM in data set [8] and 52 µM in data set [9]. Moreover, the Vmax in data set [6] amounted to 87 µmol/min/mg; in data set [7], 276 µmol/min/mg; in data set [8], 498 µmol/min/mg; in data set [9] it was 307 µmol/min/mg.

Source of the values: US6828136B2, “Esterase enzymes, DNA encoding esterase enzymes and vectors and host cells incorporating same” (Genencor International, Inc., priority 1996, dated 2004).
